Data from article PMC4005675.

Legend:
[1] = molecular target: full-length ComE^D58E from Streptococcus pneumoniae (Streptococcus pneumoniae strain R6); test: SAXS
[2] = molecular target: isolated REC^D58E domain of ComE (Streptococcus pneumoniae strain R6); test: SEC
[3] = molecular target: isolated REC^D58E domain of ComE (Streptococcus pneumoniae strain R6); test: SAXS

Substance: full-length ComE^D58E from Streptococcus pneumoniae (natural protein)
- stoichiometry N [1]: 2

Substance: isolated REC^D58E domain of ComE (domain or fragment)
- stoichiometry N [2]: 2
- stoichiometry N [3]: 2
